The DeepSol protein solubility set

assay: soluble on expression in E. coli; label from the status in PepcDB or PDB records

Q: With “MGRIKQMTPNVMRLLKACFVEQIPDEVCDEFHLKKDTEHMILITKDGGMPISKIKPLSDSQVLSVLSQILLSLYIGKRELQFSHNDLNPGNLLISETKKKSISYKKDGKSIKIKSHGRFLTLIDLQKSTFDEKEDKGLDCWKLNSRVRDQFLPLVKEDTKKILAKVAEEIEKTTILDWKLPGMLPIQ” as the sequence, how does the “soluble on expression in E. coli” value read?
A: not soluble

Q: With “MKVGIIGASGYTGSELLRILANHPEAEVIAASSRRYEGQKIWKVHRFLKGFYDLEFCSPELSNFGDCDLVFTAVPHGEAMKYVPQLLDSGIKVVDISADYRLDKETYERVYGKKHEGYVEAVYGLTELHREEIKKANLVANPGCYPTGTILAASPLAKLELIERVVFDCKSGITGAGESPSAFTHYPNLHESIVPYKITEHRHYYEMVQELGRFQSDIKISFTPQVYPGSRGILTNAHVFLRGELTREELYRIYEEFYEDSFFVRIQESVSLSQVRGSNFCDISIHPGEDRVVVVSAIDNLVKGASGQAVQNMNLMMGFDETLGLRTPPLFP” as the sequence, how does the “soluble on expression in E. coli” value read?
A: not soluble

Q: Which “soluble on expression in E. coli” value does the source give for “IGFRFDDSKGTVFIDGDVEEITGYSTEDFLSHRVKWADLVLPEDQYLIFERINRSVSNPDHSIETEYRIKRKNGEIRWIREFLQKFPEESKNSRQFQGFIHDITGRKKA” here?
A: not soluble

Q: With “MSSSANSIKVVARFRPQNRVEIESGGQPIVTFQGPDTCTVDSKEAQGSFTFDRVFDMSCKQSDIFDFSIKPTVDDILNGYNGTVFAYGQTGAGKSYTMMGTSIDDPDGRGVIPRIVEQIFTSILSSAANIEYTVRVSYMEIYMERIRDLLAPQNDNLPVHEEKNRGVYVKGLLEIYVSSVQEVYEVMRRGGNARAVAATNMNQESSRSHSIFVITITQKNVETGSAKSGQLFLVDLAGSEKVGKTGASGQTLEEAKKINKSLSALGMVINALTDGKSSHVPYRDSKLTRILQESLGGNSRTTLIINCSPSSYNDAETLSTLRFGMRAKSIKNKAKVNAELSPAELKQMLAKAKTQ” as the sequence, how does the “soluble on expression in E. coli” value read?
A: soluble

Q: For “MNTMVKLPDSRWPGWRRRLYWWMHEAVEAEEVISLDLETTSLDPRRADILSIGAVLVRRGKLVMGERLELYVEPPPSLDAESIRIHKLRRADLEGQLQLEQALRQVLAFIGDRPLLGYYLSFDVAVLNRHLRQLLDRQLHNPSIEISSLYHRKVSRHFPDAHIDLRFDTLARALDVPVSGRHTALGDAQAVALMFMRLLKGPAPKVIH”, which “soluble on expression in E. coli” value is on record?
A: not soluble

Q: With “GSHGGIEGVKGAASGVVGELARARLALDERGQKLSDLEERTAAMMSSADSFSKHAHEMMLKYK” as the sequence, how does the “soluble on expression in E. coli” value read?
A: soluble

Q: With “MGSDKIHHHHHHMEGKVDVLLTWLKKSDKFYIAPNISICESPETGRGIVLSHGSIRKNDIIVSVPSSKQLNFHTILYHISKFNKELNIPGITIDRKPINYEDNIIEAENKAWADPRYGLYSELSKEFLLSLSSFQLVSFYILVENFLLPKWTHNEIYSDWKPFFDVWPSMEELRSIPAIWNCDPNSRYHSLIEYLPAASRKHMARISGLVREDWETISEVVLKWNEIYGSLSCTKNSDKFTSDELFSLFVHVYFIINSRCLYAKIPLKIEDSPSNFTLVPYVDFMNHICESDLHCYPQLSPQLRSEGENIIGIGQFTIRCGDHLYDNINEELFLNYGAHSNDFLLNEYGFVVDGNKWNYLDISDEIIELIDDDKKEVKTFLLEHDYWGDYTINETDISYRIFVALNYYVTRDERRVRKFIEGYISEDYFKPKISSVLKELLVSLTAKYTKTLSELTEKVSNLENNLCLQNLITIYKGYIKILTQHLQDLQS” as the sequence, how does the “soluble on expression in E. coli” value read?
A: not soluble

Q: Which “soluble on expression in E. coli” value does the source give for “MLPMQLPFQRARRLCLRAALAAIASAAHADDGTIVITGTITDTTCVIEDPAGPTHTKVVQLPKISKSALAKDGDEAGRTPFLITLKNCPSSLNNGVKAYFEPGPTTDYATGDLKAYSIAYNNNPATTQNAIIAASEAQGVQIRISNQNGTKIPMGVDAAAQNAQAFNPVTDTADNAKKKVTLRYLASYVKKSGNITTGQLTTYVGFSMIYP” here?
A: not soluble

Q: For “MNHQYQDLIDIFNQTFYADYNTKLELGGDEPIYLPADERVSYHRIIFARGFYASALHEIAHWCVAGPQRRLLEDFGYWYEPDGRTAQVQAEFEKVEIRPQAYEWILAISAGFPFTVSCDNLNGDFEPDRLAFMSKVHSEVLKILEQGLPQRVKMLSEALRAFYQTPALLPEHFVVK”, which “soluble on expression in E. coli” value is on record?
A: not soluble

Q: With “VTEVEQKLQIVHQTLSMLDSHGFENILQEMLQSITLKTGELLGADRTTIFLLDEEKQELWSIVAAGEGDRSLEIRIPADKGIAGEVATFKQVVNIPFDFYHDPRSIFAQKQEKITGYRTYTMLALPLLSEQGRLVAVVQLLNKLKPYSPPDALLAERIDNQGFTSADEQLFQEFAPSIRLILESSRSFYIATQKQRAAAAMMKAVKSLSQSSLDLEDTLKRVMDEAKELMNADRSTLWLIDRDRHELWTKITQDNGSTKELRVPIGKGFAGIVAASGQKLNIPFDLYDHPDSATAKQIDQQNGYRTCSLLCMPVFNGDQELIGVTQLVNKKKTGEFPPYNPETWPIAPECFQASFDRNDEEFMEAFNIQAGVALQNAQLFATVKQQEQGSRSHHHHHH” as the sequence, how does the “soluble on expression in E. coli” value read?
A: soluble

Q: For “MILERVEIVGFRGINRLSLMLEQNNVLIGENAWGKSSLLDALTLLLSPESDLYHFERDDFWFPPGDINGREHHLHIILTFRESLPGRHRVRRYRPLEACWTPCTDGYHRIFYRLEGESAEDGSVMTLRSFLDKDGHPIDVEDINDQARHLVRLMPVLRLRDARFMRRIRNGTVPNVPNVEVTARQLDFLARELSSHPQNLSDGQIRQGLSAMVQLLEHYFSEQGAGQARYRLMRRRASNEQRSWRYLDIINRMIDRPGGRSYRVILLGLFATLLQAKGTLRLDKDARPLLLIEDPETRLHPIMLSVAWHLLNLLPLQRIATTNSGELLSLTPVEHVCRLVRESSRVAAWRLGPSGLSTEDSRRISFHIRFNRPSSLFARCWLLVEGETETWVINELARQCGHHFDAEGIKVIEFAQSGLKPLVKFARRMGIEWHVLVDGDEAGKKYAATVRSLLNNDREAEREHLTALPALDMEHFMYRQGFSDVFHRVAQIPENVPMNLRKIISKAIHRSSKPDLAIEVAMEAGRRGVDSVPTLLKKMFSRVLWLARGRAD”, which “soluble on expression in E. coli” value is on record?
A: not soluble

Q: For “MSSNDVLAQIAGLAKAAAELENDFSTDSEMQQDSEICDEVDAELFDDFETKPSSRKESSGTSRRTRMAHRELQGLQFANPGDEMSRFLPDSVDIISTNRSKRVAAEKQADLRDEPLHHDKTGKLSVTAKGQTLFFDLCDCLVVECDGCHWPCKQCKSRKCLIGCRQNRKEMVIRVEEMYTVTEAPGPVVNINPYFPGQIKD”, which “soluble on expression in E. coli” value is on record?
A: not soluble

Q: For “MAIDNIKAYVHLSDADIEEIGRRLDQIKAEVTQSLGARDVAYIKRLIRTQRSLEAAGRFALLFAGNKKCWWLGTGLLSTAKILENLEIGHNVLHGQWDWMNDPEIHSTTWEWDIVCPSSQWMHSHNFVHHTYTNVLGMDNDVGYGILRVTRDRKWTPLHAFQPAVNTVLAAMFQWAVGYYDVELGRYLTKRADWNDTKDKFWETTNKAGRQLARDYVFYPALARKAFPQAVKANAVANLVRSVWAYSVIFCGHFPDEAETFTKEQFKNEDHNQWYLRQMLGSANFYGGKLLTIMSGNLNYQIEHHLFPDMPSNRLAEVGEKVRALCDEYDLPYNVDSFPAQLFKVQKTLLKLTLPNKYLVASPDNAPEVRSNRAFSQNPELEHHHHHH”, which “soluble on expression in E. coli” value is on record?
A: soluble

Q: Which “soluble on expression in E. coli” value does the source give for “MSLNLVSEQLLAANGLNHQDLFAILGQLAERRLDYGDLYFQSSYHESWVLEDRIIKDGSYNIDQGVGVRAISGEKTGFAYADQISLLALEQSAQAARTIVRENGEGKVKTLAAVAHQPLYTTLDPLQSMSREEKLDILRRVDKAAREADKRVQEVNASLTGVYELILVAATDGTLAADVRPLVRLSVSVQVEEDGKRERGASGGGGRFGYEYFLADLDGEVRADAWAKEAVRMALVNLSAVAAPAGTLPVVLGAGWPGVLLHEAVGHGLEGDFNRRGTSVFSGQIGEQVASALCTVVDDGTMMNRRGSVAIDDEGTPGQYNVLIENGVLKGYMQDKLNARLMGAAPTGNGRRESYAHLPMPRMTNTYMLAGQSTPQEIIESVEYGIYAPNFGGGQVDITSGKFVFSTSEAYLIENGKVTTPVKGATLIGSGIETMQQISMVGNDLKLDNGVGVCGKEGQSLPVGVGQPTLKVDNLTVGGTA” here?
A: not soluble

Q: For “MSLDRVTISHMADALGVTKSTVSRAMNGYPDISEATQLRVKRMAEKMGYQPLSHAQAIKTGRARSLGLVLQFSDHDAQRPFLAEFLAGLSAGAHTDGWTLTVAAADGHDELIETFRAILRDGKADGFILPRAMSTDPRVYLLRDAGVPFVLFGRQDKEEGCAWFDVLGEEAMCDAVLHLATLGHRRIGFINGGLQYAYARLRAAGFADGMQIAGLEMDDSLIADDAMTMESGAVAAARILDTTNPPTALVCAVDFAALGAYRAAADRGIIIGRDLSIIGYDGIPEGAFAHPPLTTFAVDNRAAGFALATLLIQRIKGEPLETLRRLVPATFVERASTGEGHHHHHH”, which “soluble on expression in E. coli” value is on record?
A: not soluble

Q: With “IGQVDFGIAGNFSYNKNEILDLGGGDPNKYLDATDGYSQRNKVGEAMNSYYIYRADGFFNSQEEADAYTAKYGNPFGKTFKAGDLRYVDTNKDGKLTADDREYCGSSDPKIIYGFNINAGWKGIDLSLMFNGAAGVKRLFDGYEVYGNFSGDAAHPATIWRDAWTPDNHDASMPRIFYDTNSASSSRSVQSDFWLQDTSYLRLKNLQLGYTLPKGWLNSVGVENIRIYYSVENLLTFDKMKINIDPESTSQRLSSYPLLRTHAFGVNVTF” as the sequence, how does the “soluble on expression in E. coli” value read?
A: not soluble

Q: With “MEKYQALLANNVENTAKEALHQLAYTGREYNNIQDQIETISDLLGHSQSLYDYLREPSKANLTILENMWSSVARNQKLYKQIRFLDTSGTEKVRIKYDFKTSIAGPSLILRDKSAREYFKYAQSLDNEQISAWGIELERDKGELVYPLSPSLRILMPISVNDVRQGYLVLNVDIEYLSSLLNYSPVRDFHIELVKHKGFYIASPDESRLYGDIIPERSQFNFSNMYPDIWPRVVSEQAGYSYSGEHLIAFSSIKFVSNEPLHLIIDLSNEQLSKRATRDINDLIQESLEHHHHHH” as the sequence, how does the “soluble on expression in E. coli” value read?
A: soluble

Q: For “DSLKAEVNTLFARFDEQPLAAASIAQVHTAALFDGREVIVKVTRPNIRTQILQDFEIISWLGQSLESRLEAARALHLSEIIQDYRQIILNELDLTLEADNTRRMRHYFTGSSMMYVPEVY”, which “soluble on expression in E. coli” value is on record?
A: not soluble

Q: With “VKSKAKKTVDKHSDEYKIRRERNNIAVRKSRDKAKMRNLETQHKVLELTAENERLQKKVEQLSRELSTLRNLFKQLPEPLLASSGHC” as the sequence, how does the “soluble on expression in E. coli” value read?
A: soluble

Q: Which “soluble on expression in E. coli” value does the source give for “MARFSIEGKSLKLDAITTEDEKSVFAVLLEDDSVKEIVLSGNTIGTEAARWLSENIASKKDLEIAEFSDIFTGRVKDEIPEALRLLLQALLKCPKLHTVRLSDNAFGPTAQEPLIDFLSKHTPLEHLYLHNNGLGPQAGAKIARALQELAVNKKAKNAPPLRSIICGRNRLENGSMKEWAKTFQSHRLLHTVKMVQNGIRPEGIEHLLLEGLAYCQELKVLDLQDNTFTHLGSSALAIALKSWPNLRELGLNDCLLSARGAAAVVDAFSKLENIGLQTLRLQYNEIELDAVRTLKTVIDEKMPDLLFLELNGNRFSEEDDVVDEIREVFSTRGRGELDELDDMEELTDEEEEDEEEEAESQSPEPETSEEEKEDKELADELSKAHI” here?
A: soluble

Q: For “KANFQWETGFTFSVNKNTIKKLYGEYETIVDALGNTIVKERDDVTNGWFIGHPVSAIWDYKVTGIWQKDEVKEAAKYSQRPGDPKVQNIYTDDDKVNADGSVTPVYNNKDKQFMGETTPPIHWSLRNSFTIFKDWVFSFNMYSYMGHKSLDTNYLNNDNNYSQITNCRNVYTKEYWTVDNPSNTYARLSAQGPTGISAPARVIDRSFIRLENISLAYNIPMKFLEKYKIQNAKIFTTVRNVATWSKEWEYGDPETGGLAPRTYSLGINLTF”, which “soluble on expression in E. coli” value is on record?
A: not soluble

Q: For “MACGLALKRPLQHEYESFLTDETYNGEAKRARTQCPPFRAQMGTIAATLPSTSTFAQKFKEQEESVFQAATLMTRLSRNQLKTYLSSEVKNLRKRKAIPRSNDFDDDGDQRGDGCSSNYSKAYRAPSSPKSGSDSEGEAPSTSVTDRSSAKREFTMANVQMICERLLKQQEIRLRNEFEMVLTKKLDEQHQQYVQFAAEQLNSKCVSTGDDYSYSYLS”, which “soluble on expression in E. coli” value is on record?
A: not soluble
